Assay results: the nanobody polyreactivity screen of Harvey et al. (2022)

Assay: yeast display, Sf9 membrane polyspecificity reagent, FACS + sequencing; frameworks hold sequencing errors
Summary of the method: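 Sorting gates, low and high (top ~1%), were placed on anti-HA fluorescence to track expression and on streptavidin fluorescence to track reagent binding. A clone's polyreactivity label is taken from the gate it came out of. The reagent was 10% biotinylated, detergent-solubilized Sf9 membrane, applied for 1 hour at 4 °C to galactose-induced yeast display cells.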

QVQLVESGGGLVQAGGSLRISCAASGFSFRYYAMGWYRQAPGKERELVAAISGSGGSTYYADSVKGRFTISRDNAKNTVYLQMNSLKPEDTAVYYCARYYTYREYDYWGQATQVTVSS
polyreactivity (PSR sort gate): high polyreactivity

QVQLVESVGGLVQAGGSLRLSCAASGFTFRHYVMGWYRQQPGKERELVAAIDVRGGSTYYADSVKGRFTISRDNAKNTVYLQMNSLKPEDTAVYYCAKRLIPRLPNLQKMDYWGQGTQVTVSS
polyreactivity (PSR sort gate): low polyreactivity

QVQLVESGGGLVQAGGTLRLSCAASGITFKRYAMGWYRLAPGKERELVATISRSGGSPYADSVKGRFTISRDNAMNTVYLQMNSLKPEDSAVYYCNAVSQSSEYDYWGEGTQVTVSS
polyreactivity (PSR sort gate): high polyreactivity

QVQLVESGGGLVQAGGSLRLSCAASGSICRYYDMGWYRQAPGKERELVAAISRSGGSTYYADSVKGRFTISRDNAKNTVYLQMNSLKPEDTAVYYCNVDQFRYREDDYWGQGTQVNVSS
polyreactivity (PSR sort gate): high polyreactivity

QVQLVESGGGLVQAGGSLRLSCAASGSTYAVNVMGWYRQAPGKERELVATITYRDGRTYYADSVKGRFTISRDNAKNTVYLQMNSLKPEDTAVYYCAADAYRAQGDYWGQGTQVTVSS
polyreactivity (PSR sort gate): low polyreactivity

QFQLVESGGGLVQAGVVSLKLCCLRKHFIYYAMAWSRQAPWKDTELVAGINSGGSTKYADSVKRRFTISRDNAKNSVYLQMNSLKPEDTAVYYCNADSYSPVIQEYDYWGQGTQVTVSS
polyreactivity (PSR sort gate): low polyreactivity

QVQLVESGGGLVQAGGSLRLSCAASGRIFWDYGMGWYRQAPGKERELVAVITWGGGSTYYADSVKGRFTISRDNAKNTVYLQMNSLKPEDTAVYYCAKEYHYYYWGQGTQVTVSS
polyreactivity (PSR sort gate): low polyreactivity

QVQLVESGGGLVQAGGSLRLSCAASGSIFGQNAMGWYRQAPGKERELVAAITSGAGITYYADSVKGRFTISRDNAKNTVYLQMNSLKPEDPAVYYCIAVPSWSPSPLFDYWGQGTQVTVSS
polyreactivity (PSR sort gate): low polyreactivity

QVQRVESGGGLVQAGGSLRLSCAASGFTFVEYAMGWYRQAPGKERELVAAISVSGGSTYYADSVKGRFTISRDNAKNTVYLQMNSLKPEDTAVYYCNATGYQVGSITIYDYWGQGSQVTVSS
polyreactivity (PSR sort gate): low polyreactivity

QVQLVESGGGVDQAGGSLRLSCAASGSIFDLNARGGYRQAPGTERELVASIRDSGGRTYYADSVKGRFTISRDNAKNTVYLQMNSLKPEDTALYYCAAKPRRPGRGYWGQGTQVTVSS
polyreactivity (PSR sort gate): high polyreactivity

QVQLVESGGGLVQAGGSLRLSCAASGRIFVYYTMGWYRQAPGKERELVAAITGSGGSTYYADSVKGRFTISRDNAKNTVYLQMNSLKPEDTAVYYCAVYDSYRKFKYWGQGTQVTVSS
polyreactivity (PSR sort gate): high polyreactivity

QDQLGESGGGLVQAGGRLRLSCAASGFIIWNYGMGWYRQPPGKERELVAAISSGGTITKYADSVKGRFTISRDNAKNTVYLQMNSLKPEDTAVYYWAARWGVRAGYATFDYWGQGTQVTVSS
polyreactivity (PSR sort gate): high polyreactivity

QVQLVESGGGLVQAGGSLRLSCAASGRTFDFYAKGWYRQAPGKERELVAAITFSTGSTTYADSVKGRFTISRDNAKNTVYLQMNSLKPEDTAVYYCAADGDGWWWSYVDRYDYWGQGTQVTVSS
polyreactivity (PSR sort gate): low polyreactivity

QVQLVESGGGLVQAGGSLRLSCAASGLIFYFNAIGWYRQAPGKERELVASITRTGSTNYADSVKGRFTISRDNAKNTVYLHMNRLKPEYTAVYYCSAPWTQILDYWGQGTQVTVSS
polyreactivity (PSR sort gate): low polyreactivity

QVQLVESGGGLVQAGGSLRLSCAASGSIFTPNAMGWYRQAPGKERELVAAISWSGGGTYYADSVKGRFTISRDNAKNTVYLQMNSLKPEDTADYYCAVDFRYQDAYEYYWGQGTQVTVSS
polyreactivity (PSR sort gate): low polyreactivity

QVQLVESGGGLVQAGGSLRLSCAASGSTFSPYAMGWYRQSPGKEMELVAVITSSGGDTYYADSVKGRFTISRDNAKNTVYLQMNSLKPEDTAVYYCAADWWVLGQLWFDYWGQGTQVTVSS
polyreactivity (PSR sort gate): low polyreactivity

QVQLVESGGGLVQAGGSLRLSCAASGSTFQFYALGWYRQAPGKERELVAAISVSGDRTYYADSVKGRFTISRDYAKNTVYLQMNSLKPEDTAVYYCAASIWHFEVVSWYLYDYWGQGTQVTVSS
polyreactivity (PSR sort gate): high polyreactivity

QVQLVESGGGLVQAGGSLRLSSSACGSTFYKNAMGWDRQAPGKERELVAGISRRGGRTYYADSLKGRFTISRDNANNTVYLQMNSLKPVDTADYYCNTGHEEDEYDYWGQGTQVTVSS
polyreactivity (PSR sort gate): low polyreactivity

QVQLVESGGGLVQAGGSLRLSCAASGRTFNAYAMGWYRHAPGKERELVAAISSGGSTYYADSVKGRFTISRDNAKNTVYLLMNSLKPEDTAVYYCNKVYGWRQFDYWGQGTQVTVSS
polyreactivity (PSR sort gate): high polyreactivity

QVQLVESGGGLVQAGGSLRLSCAASGRIYPYYDMGSYRPAPGKERELVAAITWNGGSTYYADSVKGRFTISRDYAKNTVYLQMNSLKPEDTAVYYCAVEPYYYGEDYWGQGTQVTVSS
polyreactivity (PSR sort gate): low polyreactivity

QVQLVESGGGLVQAGGSLRLSCAASGFIFASYTMGWYRQAPGKERELVASISRDGGRTSYADSVKGRFTISRDNAKNTVYLQMNSLKPEDTAVYYCAARYWLRSEYWGQGTQVTVSS
polyreactivity (PSR sort gate): high polyreactivity

QVQLVESGGGLVQAGGSLRLSCAASGSIFEVYAMGWYRQAPGKDRELVAAITSSDITYYADSVKGRFTISRDNAKNTVYLQMNSLKPEDRAVFYCNAEPPYRVKRSDYWGQGTQVTVSS
polyreactivity (PSR sort gate): low polyreactivity

QVQLVETGRGLVQAGGSLRLSCAASGSTFWPNAMGWYRQAPGKDRELVAAITSGGGTKYADSVKGRFTISRDNAKNTVYLQMNSLKPEDTAVYYCAKRKGDRGAWNHAYGWEDVDYWGQGTQVTVSS
polyreactivity (PSR sort gate): low polyreactivity

QVQLVESGGGLVQAGGSLRLSCAASGITFRRNAMGWYRQAPGKERELFAGITRGGTTKYADSVKGRFTISRDNAKNTVYLQMNSLKPEDTAVYFCAAKDNSYGGPPQFGYWGQGTQVTVSS
polyreactivity (PSR sort gate): high polyreactivity

QVQLVESGGGLVQAGGSLSLSCAASGSIFGIYAMGWYRQAAGKDRELVATINSRGTTNYADSVKGRFTISRYNAKNTVYLQMNSLKPEDTAVYYCAARFSTYRGKLKGYEYWGQGTQVTVSS
polyreactivity (PSR sort gate): high polyreactivity

QVQLVESGGGLVQAGGSLRLSFAASGRIFYNYAMGWYRQAPGTERELVAAITDSDGSTYADSVKGRFTISRDNAMNTVYFQMNSLKPEDTAVYYCAARRYYPYKYRYGYWGQGTQVTVSS
polyreactivity (PSR sort gate): high polyreactivity

QVQLVESGGGLVQAGGSLRLSCADSGSTFDSYAMGWSRQAPGKEMDMVAGITWGGGSTYYADSVKGRLTISRDNAKNTVYLQLNSLKPEDTAVYDCAAEEVYYWYTYYYWGEGTQVTVSS
polyreactivity (PSR sort gate): high polyreactivity

QVHLVESGGGLVQAGGSLRLSCAASGSTFGWYAMGWYRPSPGKERELVAAIRSNGGSTYYADSLKGRFTISRDNAKNTVYLQMNSLKPEDTAVFYCAARGSPSKHHWYDYWGQGTQVTVSS
polyreactivity (PSR sort gate): low polyreactivity

QVQLEESGVGVVLAGGSRSLSCAASGRIFQYNAMGWNRQAPGKERELVAAISYRGGSTYYADSVKGRFTISRDNAKYTVYLQLNSLKPEDTAVYYCAVEYPVYYYVEYDYWGQGTQVTVSS
polyreactivity (PSR sort gate): high polyreactivity

QVQLVESGGGLVQAGGSLRLSCAASGITFQTYAMGWYRQAPGKERELVAAIRWGGGTTYYADSVKGRFTISRDNAKNTVYLQMNSLKPEDTAVYYCAARTYYRRGGRVDYWGQGTQVTVSS
polyreactivity (PSR sort gate): high polyreactivity

QVQLEESGGGLVQAGGSLRLSCAASGSILRVNVMVWYRQAPGKERELVAAITSGGRTYYADSVKGRFTISRDNAKNTVYLQMNSLIQEDTAVYYCAAKFFRNTYSYGMDYWGQGTQVTVSS
polyreactivity (PSR sort gate): high polyreactivity

QVQLVESGGGLVQAGGSLRLSCAASGRTFSWNTMGWYRQAPGKERELVAAITRVGTTYYADSVKGRFTISRDNAKNTVYLQMNSLKPEDTGVYYCNARKVRYPYRWYDYWGQGTQVTVSS
polyreactivity (PSR sort gate): high polyreactivity

QVQLVESGGGLVQAGGSLRLSCAASGSTLIIYAMGWYRQAPGKERELVATISWSGGNTYYADSVKGRFTISRDNAKYTVYLQMNSLKPEDTAVYYCAARWYYYPLLYDYWGQGTQVTVSS
polyreactivity (PSR sort gate): low polyreactivity

QVQLVESGGGLVQAGGSGRLSCAASGRTTRDYAMGWYRQAPGKERELVAAIRWRGVSTYYADSVKGRFTISRDNAKNTVDVQMNSLKPEDTAVYYCAKRESVSTSAGKGAMDSWGQGTQVTVSS
polyreactivity (PSR sort gate): high polyreactivity

QVQLVESGGGLVQAGGSLRISCAASGRILGKYAMGWYRQAPGKESELVAAIRLRGGSTYYADSVKGRFTISRDNEKNSVYLQMNSLKPEDTAVYYCAARYWDRSQAYNDWGQGTQVTVSS
polyreactivity (PSR sort gate): high polyreactivity

QVQLVESGGGLVQSGGSLRLSCAASGSTFDPNTMGSYRQAPGKERELVATITSVDSTNYADSVKGRFTISRDNAMNTVYLQMNSLIPEDTAVYYCNAAYGGVFFYAYDYWGQGTQVTVSS
polyreactivity (PSR sort gate): low polyreactivity

QVQLQESGGGLVQAGGSLRLGCAASGNISDAGYMGWYRQAPGKEREFVAAIAAGSNTNYADSVKGRFTISRDNAKNTVYLQMNSLKPEVTAVFYCAVACYARVQYEYWGQGTQVTVNS
polyreactivity (PSR sort gate): low polyreactivity

QVQLVESGGGLVQAGGSLRLSCAASGSTFVGYAMGWYRQAPGKERELVAHISYSGGSTYYADSVKGRFTISCDNAKNTVYLQMNSLKPEDTAVYYCAAEWSRHYYYAPRYDYWGQGTQVTVSS
polyreactivity (PSR sort gate): low polyreactivity

QVQLVESLGGLVQAGASLRLSCAASARTFVIYSMGSYREAPGKERELVAAITWNGETTYYADSVKGRFTISRDNAKNTVYLQMNSLKPEDTAVYYCAAETRSEYHYWGQGTQVTVSS
polyreactivity (PSR sort gate): high polyreactivity

QVQRVESGGGLVQAGGSLRLRCAASGFIFWLYAMGWYRQAPAKERELVAAISNGGSTNYADSVKGRFTISRDNAKNTVYLQMNSLKPEDTAVYYCAAKFPRRYYWYDYWGQGTQVTVSS
polyreactivity (PSR sort gate): high polyreactivity

QVQLVESGGGLVQAGGSIRISCEASGITFGRNPMGCDRQAPGKERELVDAIDSGGNTYADSVKGRFTISRDNAKNTFYLQMNRLIPEDTAVYYCAVDGGEFSSYGYWGQGTQVTVSS
polyreactivity (PSR sort gate): low polyreactivity

QVQLVESGGGLVQAGGSLRLSCAASGMTFTDYAMGWYRQAPGKERELVAAISRSGGTTYYADSVKGRFTISRDNAKNTVYLQMNSLKPEDTAVYYCAARVTPGRNGGGYWGQGTQVTVSS
polyreactivity (PSR sort gate): high polyreactivity

QVQLVESGGGLVQAGGRLRLICAASGRTSRIYAMGWYRQAPGKWELVAAISGSGSRTYYADSVKGRFTISRDNAKNTVYFQMNSLKPEDTAVSYCNARYWYRHHPPEFDYWGQGTQVTVSS
polyreactivity (PSR sort gate): high polyreactivity
